Patent CN114621348A (SHENZHEN SHENHI BIOMEDICINE CO LTD, dated 2022)

B1: D35 (antibody, V domains shown)
VH: EVQLVESGGGVVKPGGSLRLSCAASGFIFSDSYMTWLRQAPGKGLEWVSYISGSASDIKYADSVKGRFTISRDNAKNSLYLQMNSLRVEDTAVYYCARDPRLAGIWGQGTTVTVSS
VL: DIQLTQSPSTLSASIGDRVTITCRASQRVSSRLAWYQQKPGKAPKLLIYKTSNLEAEVPSRFSGSGSGTEFTLTISSLQPDDFATYYCQQYHSYPLTFGGGTKVEIK
notes: also called 克隆D35
B2: D38 (antibody, V domains shown)
VH: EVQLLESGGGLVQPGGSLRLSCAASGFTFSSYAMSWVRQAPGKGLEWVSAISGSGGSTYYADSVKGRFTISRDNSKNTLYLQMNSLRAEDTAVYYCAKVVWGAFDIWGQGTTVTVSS
VL: NIQMTQSPSSLSASVGDRVTISCQASQDISNYVNWYQQRPGKAPKLLMYDASNLEVGVPVRFRGSGSGTEFTFTILSLQPEDLGTYYCQQYDSLPFTFGQGTKLDLK
notes: also called 克隆D38
B3: D42 (antibody, V domains shown)
VH: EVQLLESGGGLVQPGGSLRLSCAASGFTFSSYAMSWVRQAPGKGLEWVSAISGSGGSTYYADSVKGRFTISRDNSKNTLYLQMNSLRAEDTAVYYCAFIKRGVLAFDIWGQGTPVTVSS
VL: DIQLTQSPSSVSASVGDRVVITCRASQSLGNWLAWYQQKPGKAPNLLIYGASTLQTGVPSRFSGFHSGGEYTLSISNLQPEDAATYYCQQASSIPLTFGGGTKVEIK
notes: also called 克隆D42
B4: D48 (antibody, V domains shown)
VH: EVQLLESGGGLVQPGESLRLSCEASGLTFSSYPMAWVRQAPGKGLEWVSVIYSDGSKKFYADSVKGRFTISRHNSKNTLYLQMNSLRAEDTAVYYCARGISSSGFDYWGQGTLVTVSS
VL: DIQLTQSPSSLSASVGDRVTITCRASQGISSWLAWYQQKPGKAPKLLIYAASSLQSGVPSRFSGSGSGTDFTLTISSLQPEDFATYYCQQGNSFPLTFGGGTKVEIK
notes: also called 克隆D48
B5: Codrituzumab (antibody, human IgG1, kappa, V domains shown)
VH: QVQLVQSGAEVKKPGASVKVSCKASGYTFTDYEMHWVRQAPGQGLEWMGALDPKTGDTAYSQKFKGRVTLTADKSTSTAYMELSSLTSEDTAVYYCTRFYSYTYWGQGTLVTVSS
VL: DVVMTQSPLSLPVTPGEPASISCRSSQSLVHSNRNTYLHWYLQKPGQSPQLLIYKVSNRFSGVPDRFSGSGSGTDFTLKISRVEAEDVGVYYCSQNTHVPPTFGQGTKLEIKR
notes: also called GC33; GPC3阳性抗体
B6: D37 (antibody, V domains shown)
VH: QVQLLESGGGLVQPGGSLRLSCAASGFTFSSYAMNWVRQAPGKGLEWVSTISGSGGSTYYADSVKGRFTISRDNSKNTLYLQMNSLRAEDTAVYYCARGSWGAFDIWGQGTPVTVSS
VL: DIQLTQSPSSLSASVGDRVTITCQASQGISNYVNWYQQKPGKAPELLISDAYNLEAGVPSTFSGSGSGTQFTFTISSLQPEHIGTYYCQQFETIPWTFGQGTKIEVK
notes: also called 克隆D37
B7: D47 (antibody, V domains shown)
VH: EVQLLESGGGLVKPGGSLRLSCAASGFTFSSYSMNWVRQAPGKGLEWVSSISSSSSYIYYADSVKGRFTISRDNAKNSLYLQMNSLRAEDTAVYYCARGAARFDYWGQGTMVTVSS
VL: NIQLTQSPSSVSASVGDRVTITCRASQGIWRWLAWYQHKPGKAPKLLISAASNLQSGVPSRFSGSGSGTDFTLTISSLQPEDVATYYCQQANSFPSLTFGGGTKVDIR
notes: also called 克隆D47
B8: D36 (antibody, V domains shown)
VH: EVQLLESGGGLVKPGGSLRLSCAASGFTFSSYSMNWVRQAPGKGLEWVSSISSSSSYIYYADSVKGRFTISRDNAKNSLYLQMNSLRAEDTAVYYCARETTDGGMDVWGQGTLVTVSS
VL: DIQMTQSPSSVSASVGDRVTITCRASQDIGKYLNWYQQKAGKAPNLLIYDASNLKTGVSSRFSGSGSGTEFTFTISSLQPEDIATYFCQQFDDFPYTFGPGTKVGIR
notes: also called 克隆D36
B9: D5 (antibody, V domains shown)
VH: EVQLLESGGGVVQPGRSLRLSCAASGFTFSSYAMHWVRQAPGKGLEWVAVISYDGSNKYYADSVKGRFTISRDNSKNTLYLQMNSLRAEDTAVYYCARQYSSSSPFDYWGQGTLVTVSS
VL: NIQLTQSPSTLSASVGDRITITCRASQSISRWLAWYQQKPGKAPKVLIYKASNLENGVPSRFSGSGSGTEFTLTISSLQPDDSATYYCQQHSYSSPWRFGQGTKVEIK
notes: also called 克隆D5

Legend:
磷脂酰肌醇蛋白聚糖3(GPC3) [1] = molecular target: T1, 磷脂酰肌醇蛋白聚糖3(GPC3) (UniProt P51654 25-554); assay: flow cytometry on GPC3-CHO-S cells, full-length IgG1
T1 construct: whole, on cells; also called MXR7; OCI-5
T1 sequence (P51654 25-554 limits assumed, form in doubt): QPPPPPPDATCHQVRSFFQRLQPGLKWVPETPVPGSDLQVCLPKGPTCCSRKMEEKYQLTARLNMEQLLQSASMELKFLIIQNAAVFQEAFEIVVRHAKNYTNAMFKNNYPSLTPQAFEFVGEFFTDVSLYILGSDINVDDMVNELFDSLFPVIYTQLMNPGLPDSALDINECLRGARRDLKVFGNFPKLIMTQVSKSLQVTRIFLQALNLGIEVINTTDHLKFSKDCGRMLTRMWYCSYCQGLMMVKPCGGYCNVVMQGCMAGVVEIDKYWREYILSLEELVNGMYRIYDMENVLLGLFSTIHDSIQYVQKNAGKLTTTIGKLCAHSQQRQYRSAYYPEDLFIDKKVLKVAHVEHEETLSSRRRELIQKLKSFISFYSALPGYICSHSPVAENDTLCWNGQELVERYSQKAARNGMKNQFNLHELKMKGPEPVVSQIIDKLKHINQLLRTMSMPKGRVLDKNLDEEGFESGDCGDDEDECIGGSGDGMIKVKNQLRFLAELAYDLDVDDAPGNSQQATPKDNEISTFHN

磷脂酰肌醇蛋白聚糖3(GPC3) [2] = molecular target: T1, 磷脂酰肌醇蛋白聚糖3(GPC3); assay: flow cytometry on HepG2 cells, full-length IgG1
磷脂酰肌醇蛋白聚糖3(GPC3) [3] = molecular target: T1, 磷脂酰肌醇蛋白聚糖3(GPC3); assay: flow cytometry on HuH-7 cells, full-length IgG1
磷脂酰肌醇蛋白聚糖3(GPC3) [4] = molecular target: T1, 磷脂酰肌醇蛋白聚糖3(GPC3); assay: flow cytometry on HepG2 cells
磷脂酰肌醇蛋白聚糖3(GPC3) [5] = molecular target: T1, 磷脂酰肌醇蛋白聚糖3(GPC3); assay: flow cytometry on GPC3-CHO-S cells
磷脂酰肌醇蛋白聚糖3(GPC3) [6] = molecular target: T1, 磷脂酰肌醇蛋白聚糖3(GPC3); assay: flow cytometry on HuH-7 cells

| Binder | EC50 (磷脂酰肌醇蛋白聚糖3(GPC3) [1]) [µg/mL] | EC50 (磷脂酰肌醇蛋白聚糖3(GPC3) [2]) [µg/mL] | EC50 (磷脂酰肌醇蛋白聚糖3(GPC3) [3]) [µg/mL] | further results |
| --- | --- | --- | --- | --- |
| B1 | 0.0316 | 7.94 |  |  |
| B2 | 0.0394 | 83.9 | 45.1 |  |
| B3 |  | 18.3 |  |  |
| B4 | 0.0968 | 11.6 |  |  |
| B5 |  |  |  | EC50 (磷脂酰肌醇蛋白聚糖3(GPC3) [4]): 0.172 µg/mL; EC50 (磷脂酰肌醇蛋白聚糖3(GPC3) [5]): 0.184 µg/mL; EC50 (磷脂酰肌醇蛋白聚糖3(GPC3) [6]): 0.191 µg/mL |
| B6 | 0.0314 |  | 6.21 |  |
| B7 |  |  | 0.0228 |  |
| B8 | 0.0394 |  |  |  |
| B9 | 0.0664 |  | 9.62 |  |
